The experiment concerns the target T1, Saccharomyces cerevisiae Importin β (Kap95p) (S. cerevisiae, UniProt Q06142 1-861).
T1 sequence (looked up): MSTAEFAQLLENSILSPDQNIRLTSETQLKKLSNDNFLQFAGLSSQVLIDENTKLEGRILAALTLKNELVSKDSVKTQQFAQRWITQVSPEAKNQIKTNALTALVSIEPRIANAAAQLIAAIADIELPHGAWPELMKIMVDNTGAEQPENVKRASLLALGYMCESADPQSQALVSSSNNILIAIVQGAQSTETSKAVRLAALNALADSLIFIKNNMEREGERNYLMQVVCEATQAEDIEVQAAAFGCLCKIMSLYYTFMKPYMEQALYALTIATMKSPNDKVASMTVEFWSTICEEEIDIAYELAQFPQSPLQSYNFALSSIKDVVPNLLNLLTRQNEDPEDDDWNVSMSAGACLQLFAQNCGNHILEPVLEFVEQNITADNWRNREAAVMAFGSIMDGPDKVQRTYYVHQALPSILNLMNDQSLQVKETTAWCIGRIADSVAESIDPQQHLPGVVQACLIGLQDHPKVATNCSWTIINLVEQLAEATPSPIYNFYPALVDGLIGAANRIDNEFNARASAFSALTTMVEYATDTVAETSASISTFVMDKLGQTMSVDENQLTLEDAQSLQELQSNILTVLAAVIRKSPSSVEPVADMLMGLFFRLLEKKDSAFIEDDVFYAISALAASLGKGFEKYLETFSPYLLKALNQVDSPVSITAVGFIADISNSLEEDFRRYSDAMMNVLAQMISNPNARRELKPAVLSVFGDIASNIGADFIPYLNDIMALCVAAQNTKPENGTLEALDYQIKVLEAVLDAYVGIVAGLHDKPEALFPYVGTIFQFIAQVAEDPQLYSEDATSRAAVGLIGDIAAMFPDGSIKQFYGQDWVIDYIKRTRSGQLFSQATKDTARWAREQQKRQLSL
Briefly: NTR⋅cargo complex formed from purified proteins, followed by the fluorescent cargo's entry into FG particles (confocal microscopy); 1 µM complex (referring to substrate monomers) added to FG particles; no separate test of complex formation is described. To be noted: both partners purified.

B1: Atto488-labelled IBB domain of S. cerevisiae Srp1p (domain or fragment)
chain: DNGTDSSTSKFVPEYRRTNFKNKGRFSADELRRRRDTQQVELRKAKRDEALAKRRNFIPPTDC
modifications: also: Atto488 label, position not given here
notes: IBB domain of Srp1p (importin α), S. cerevisiae, residues 2-63; C-terminal cysteine of the construct; The label probably sits on the C-terminal cysteine; also called ScIBB; IBB-Atto488; source: E. coli (BLR or NEB Express), purified (native Ni(II) chelate chromatography, tag removed); not shown: His14, N-terminal, cleaved; ZZ, N-terminal, cleaved; brNEDD8, N-terminal, cleaved
Take B1: the binding result is “binds”.

(Values after article PMC4283134, “Nup98 FG domains from diverse species spontaneously phase-separate into particles with nuclear pore-like permselectivity” (eLife, 2015).)
